Measurements from publication doi:10.1101/498865 (2018).

Legend:
[1] = target: T1, Cam1 (fission yeast calmodulin), amino-terminally acetylated (S. pombe, UniProt P05933 1-150, amino-terminal (Nt) acetylation); experiment: FRET; first site (Kd1; <0.1 uM)
[2] = target: T1, Cam1 (fission yeast calmodulin), …; experiment: FRET; second site (Kd2)
[3] = target: T1, Cam1 (fission yeast calmodulin), …; experiment: FRET

T1 sequence (P05933 whole entry): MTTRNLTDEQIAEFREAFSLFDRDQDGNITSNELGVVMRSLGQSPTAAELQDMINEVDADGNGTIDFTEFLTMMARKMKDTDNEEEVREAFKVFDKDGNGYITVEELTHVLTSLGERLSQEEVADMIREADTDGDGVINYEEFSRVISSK

| Binder | Kd [1] [nM] | Kd [2] [nM] | Kd [3] [nM] |
| --- | --- | --- | --- |
| DTMATRIQRAWRSYVRRRSEAAACIQKLWNRNKVNMELERVRNEGTK (domain or fragment) [CyPet-Myo1^IQ12-YPet FRET reporter protein] | 40 | – | – |
| CyPet-DTMATRIQRAWRSYVRRRDEAAACIQKLWNRNKVNMELERVRNEGTK-YPet (domain or fragment, not fully specified) [CyPet-Myo1^IQ12-S742D-YPet FRET reporter protein] | 90 | 540 | – |
| DTMATRIQRAWRSYVRRRSEA (domain or fragment) [CyPet-Myo1^IQ1-YPet FRET reporter protein] | – | – | 60 |
